Reference: patent US20240409617A1

Molecular target: Human FcRn, biotinylated (human) (UniProt P55899)

Kd: 19.7 nM
koff: 0.00877 s⁻¹
kon: 445000 M⁻¹ s⁻¹
Substance: Atezolizumab (antibody)
